Measured values from patent US20250101446A1, “METHOD FOR GENETIC TRANSFORMATION OF PLANT ORGANELLE GENOME AND USES THEREOF” (Solar Grants Biotechnology Inc., priority 2022, published 2025).

Experiments:
[1] = tested on: human NSCLC cell line NCI-H1792; assay: Attenuation of P1-induced IL-6 secretion in NCI-H1792 cells by pre-treatment with plant-produced cytokines (ELISA); assay type: cell-based; details: H1792 cells; pre-incubated 3 h, 1.0 ng/ml; P1 24 h
PHA-stimulated PBMCs = assay: Cytokine secretion from PHA-stimulated PBMCs treated with plantakines (multiplex Luminex); assay type: cell-based, human
Description: The bioactivity of our plantakines IL-37b and IL-38 was assessed by monitoring the secretion of 11 cytokines, generally regarded as inflammatory markers, from PBMCs stimulated with an IA. Freshly isolated human PBMCs were subjected to various treatments-combinations of the IAs with the plantakines at different concentrations. Two different model IAs were used, either the bacterial lipopolysaccharides (LPS) or a lectin from Phaseolus vulgaris (phytohaemagglutinin, PHA); each of the IAs was applied onto cells separately, each IA was applied at two concentrations: LPS at 150 and 300 μg/mL; PHA at 5 and 10 μg/mL. Each IA at each concentration was applied in combination with one of the two plantakines, each of them at three different concentrations: 1, 10 and 100 ng/ml of the monomeric forms present in the purified extracts. Also included were treatments comprised of either IA at their lower concentrations, in combination with both plantakines at 10 ng/ml concentration in order to assess possible synergistic effects. Cells with only IAs applied represented the reference (positive controls for each concentration), cells without any treatment represented the basal level (negative control). The levels of eleven different pro-inflammatory cytokines secreted into the medium from the PBMCs-GM-SCF, IFNγ. TNFα, IL-1α, IL-1β, IL-6, IL-8, IL-22, IL12, IL-17 and IL-10 were compared between the treatments and the controls. We applied Generalized Estimating Equation (GEE) model for the statistical data analysis. This statistical approach allows for nested observations and was used to test the effects of the plantakines IL-37b and IL-38 and their dosage in the context of IA-stimulated PBMCs inflammatory responses.
After isolation, the PBMCs from each donor separately were counted, plated in equal numbers per well and stimulated for 24 h with the applied treatments. Control wells on the plate contained media only (as basal level controls), and LPS and PHA (as positive controls at their corresponding concentrations). After the 24 h treatments stimulation the PBMCs' culture supernatants were used in the multiplex Luminex platform-assisted analysis of the concentrations of the 11 secreted pro-inflammatory cytokines.
The whole blood from 5 random human donors was collected in ACD Vacutainer tubes and immediately processed for isolation of PBMCs by gradient density centrifugation using Lympholyte. […] 5% CO2 and >80% humidity. PBMCs were treated with one of two IAs at 2 concentrations each (LPS at 150 and 300 μg/mL; PHA at 5 and 10 μg/mL) in combination with two test items (plant-produced IL-37b or IL-38) at three concentrations each (1, 10 and 100 ng/ml), based on the monomeric form amounts estimated with densitometry (ImageJ). Each treatment was tested in triplicates. Control wells contained media only (negative control, basal level of detection) and the examined IAs at both tested concentrations as the positive controls. The PBMCs were incubated for 24 hours after the stimulation for analysis of the levels of the secreted cytokines that were determined in the culture supernatant using a multiplex immunoassay (MAGPix®, Luminex), analytes were selected from the Milliplex panel HCYTOMAG-60K, sensitivity range of […]. All parameters of the Milliplex panel cytokines analysis using Luminex platform were validated (Millipore-Sigma).
Non-linear logarithm transformation was performed to address non-normality of distribution of Luminex-derived numeric data. Generalized Estimating Equation (GEE) method was used in the analysis of nested (correlated) structure of the data. Secreted inflammatory cytokine values were used as dependent variables and test item (plantakines) with dosage as independent predictors (factors). Separate analyses were conducted for each of the 11 monitored cytokines and each inflammatory agent/concentration combination. […]

B1: plant-produced recombinant human IL-38, mature form C2-W152 with C-terminal 7xHIS tag (ligand)
chain: CSLPMARYYIIKYADQKALYTRDGQLLVGDPVADNCCAEKICILPNRGLARTKVPIFLGIQGGSRCLACVETEEGPSLQLEDVNIEELYKGGEEATRFTFFQSSSGSAFRLEAAAWPGWFLCGPAEPQQPVQLTKESEPSARTKFYFEQSWHHHHHHH
notes: range 2-152; also called rhIL-38; plantakine IL-38
attenuation of IL-6 secretion triggered by P1 [1]: −60%
secreted GM-CSF level modulation vs positive control (PHA-stimulated PBMCs; 1 ng/mL, PHA 5 μg/mL): 18.0%, p = 0.403
secreted IFNγ level modulation vs positive control (PHA-stimulated PBMCs; 1 ng/mL, PHA 5 μg/mL): −35.6%, p = 0.137
secreted IL-1α level modulation vs positive control (PHA-stimulated PBMCs; 1 ng/mL, PHA 5 μg/mL): −9.5%, p = 0.480
secreted IL-1β level modulation vs positive control (PHA-stimulated PBMCs; 1 ng/mL, PHA 5 μg/mL): −2.0%, p = 0.888
secreted IL-6 level modulation vs positive control (PHA-stimulated PBMCs; 1 ng/mL, PHA 5 μg/mL): −5.8%, p = 0.798
secreted IL-8 level modulation vs positive control (PHA-stimulated PBMCs; 1 ng/mL, PHA 5 μg/mL): −11.3%, p = 0.736
secreted IL-10 level modulation vs positive control (PHA-stimulated PBMCs; 1 ng/mL, PHA 5 μg/mL): 17.4%, p = 0.244
secreted IL-12 level modulation vs positive control (PHA-stimulated PBMCs; 1 ng/mL, PHA 5 μg/mL): 63.3%, p = 0.020
secreted IL-17 level modulation vs positive control (PHA-stimulated PBMCs; 1 ng/mL, PHA 5 μg/mL): 4.1%, p = 0.807
secreted IL-22 level modulation vs positive control (PHA-stimulated PBMCs; 1 ng/mL, PHA 5 μg/mL): 8.1%, p = 0.631
secreted TNFα level modulation vs positive control (PHA-stimulated PBMCs; 1 ng/mL, PHA 5 μg/mL): 46.2%, p = 0.173
secreted GM-CSF level modulation vs positive control (PHA-stimulated PBMCs; 1 ng/mL, PHA 10 μg/mL): 1.5%, p = 0.881
secreted IFNγ level modulation vs positive control (PHA-stimulated PBMCs; 1 ng/mL, PHA 10 μg/mL): −36.9%, p = 0.164
secreted IL-1α level modulation vs positive control (PHA-stimulated PBMCs; 1 ng/mL, PHA 10 μg/mL): −5.8%, p = 0.469
secreted IL-1β level modulation vs positive control (PHA-stimulated PBMCs; 1 ng/mL, PHA 10 μg/mL): 0.0%, p = 1.000
secreted IL-6 level modulation vs positive control (PHA-stimulated PBMCs; 1 ng/mL, PHA 10 μg/mL): −2.0%, p = 0.898
secreted IL-8 level modulation vs positive control (PHA-stimulated PBMCs; 1 ng/mL, PHA 10 μg/mL): −5.8%, p = 0.823
secreted IL-10 level modulation vs positive control (PHA-stimulated PBMCs; 1 ng/mL, PHA 10 μg/mL): 22.1%, p = 0.033
secreted IL-12 level modulation vs positive control (PHA-stimulated PBMCs; 1 ng/mL, PHA 10 μg/mL): 22.2%, p = 0.476
secreted IL-17 level modulation vs positive control (PHA-stimulated PBMCs; 1 ng/mL, PHA 10 μg/mL): 22.1%, p = 0.166
secreted IL-22 level modulation vs positive control (PHA-stimulated PBMCs; 1 ng/mL, PHA 10 μg/mL): 86.8%, p < 0.001
secreted TNFα level modulation vs positive control (PHA-stimulated PBMCs; 1 ng/mL, PHA 10 μg/mL): 55.3%, p = 0.411
secreted IFNγ level modulation vs positive control (PHA-stimulated PBMCs; 10 ng/mL, PHA 5 μg/mL): −53.2%, p = 0.032
secreted IL-1α level modulation vs positive control (PHA-stimulated PBMCs; 10 ng/mL, PHA 5 μg/mL): 4.1%, p = 0.690
secreted IL-1β level modulation vs positive control (PHA-stimulated PBMCs; 10 ng/mL, PHA 5 μg/mL): 4.1%, p = 0.801
secreted IL-6 level modulation vs positive control (PHA-stimulated PBMCs; 10 ng/mL, PHA 5 μg/mL): 10.5%, p = 0.538
secreted IL-8 level modulation vs positive control (PHA-stimulated PBMCs; 10 ng/mL, PHA 5 μg/mL): 8.3%, p = 0.772
secreted IL-10 level modulation vs positive control (PHA-stimulated PBMCs; 10 ng/mL, PHA 5 μg/mL): 15.0%, p = 0.224
secreted IL-12 level modulation vs positive control (PHA-stimulated PBMCs; 10 ng/mL, PHA 5 μg/mL): 107.0%, p = 0.079
secreted IL-17 level modulation vs positive control (PHA-stimulated PBMCs; 10 ng/mL, PHA 5 μg/mL): 24.6%, p = 0.215
secreted IL-22 level modulation vs positive control (PHA-stimulated PBMCs; 10 ng/mL, PHA 5 μg/mL): 55.8%, p < 0.001
secreted TNFα level modulation vs positive control (PHA-stimulated PBMCs; 10 ng/mL, PHA 5 μg/mL): 49.2%, p = 0,123
secreted GM-CSF level modulation vs positive control (PHA-stimulated PBMCs; 10 ng/mL, PHA 10 μg/mL): 42.6%, p = 0.016
secreted IFNγ level modulation vs positive control (PHA-stimulated PBMCs; 10 ng/mL, PHA 10 μg/mL): −53.2%, p = 0.046
secreted IL-1α level modulation vs positive control (PHA-stimulated PBMCs; 10 ng/mL, PHA 10 μg/mL): −2.0%, p = 0.893
secreted IL-1β level modulation vs positive control (PHA-stimulated PBMCs; 10 ng/mL, PHA 10 μg/mL): 4.1%, p = 0.761
secreted IL-6 level modulation vs positive control (PHA-stimulated PBMCs; 10 ng/mL, PHA 10 μg/mL): 6.2%, p = 0.722
secreted IL-8 level modulation vs positive control (PHA-stimulated PBMCs; 10 ng/mL, PHA 10 μg/mL): −3.9%, p = 0.886
secreted IL-10 level modulation vs positive control (PHA-stimulated PBMCs; 10 ng/mL, PHA 10 μg/mL): 32.3%, p < 0.001
secreted IL-12 level modulation vs positive control (PHA-stimulated PBMCs; 10 ng/mL, PHA 10 μg/mL): 8.8%, p = 0.750
secreted IL-17 level modulation vs positive control (PHA-stimulated PBMCs; 10 ng/mL, PHA 10 μg/mL): 19.7%, p = 0.188
secreted IL-22 level modulation vs positive control (PHA-stimulated PBMCs; 10 ng/mL, PHA 10 μg/mL): 61.7%, p = 0.061
secreted TNFα level modulation vs positive control (PHA-stimulated PBMCs; 10 ng/mL, PHA 10 μg/mL): 166.4%, p = 0.105
secreted IFNγ level modulation vs positive control (PHA-stimulated PBMCs; 100 ng/mL, PHA 5 μg/mL): 6.2%, p = 0.856
secreted IL-1α level modulation vs positive control (PHA-stimulated PBMCs; 100 ng/mL, PHA 5 μg/mL): 46.2%, p = 0.015
secreted IL-1β level modulation vs positive control (PHA-stimulated PBMCs; 100 ng/mL, PHA 5 μg/mL): 43.3%, p = 0.019
secreted IL-6 level modulation vs positive control (PHA-stimulated PBMCs; 100 ng/mL, PHA 5 μg/mL): 15.0%, p = 0.432
secreted IL-8 level modulation vs positive control (PHA-stimulated PBMCs; 100 ng/mL, PHA 5 μg/mL): 10.5%, p = 0.731
secreted IL-10 level modulation vs positive control (PHA-stimulated PBMCs; 100 ng/mL, PHA 5 μg/mL): 15.0%, p = 0.275
secreted IL-12 level modulation vs positive control (PHA-stimulated PBMCs; 100 ng/mL, PHA 5 μg/mL): 123.0%, p < 0.001
secreted IL-17 level modulation vs positive control (PHA-stimulated PBMCs; 100 ng/mL, PHA 5 μg/mL): 29.7%, p = 0.107
secreted IL-22 level modulation vs positive control (PHA-stimulated PBMCs; 100 ng/mL, PHA 5 μg/mL): 15.3%, p = 0.347
secreted TNFα level modulation vs positive control (PHA-stimulated PBMCs; 100 ng/mL, PHA 5 μg/mL): 85.9%, p = 0.026
secreted IFNγ level modulation vs positive control (PHA-stimulated PBMCs; 100 ng/mL, PHA 10 μg/mL): 6.2%, p = 0.852
secreted IL-1α level modulation vs positive control (PHA-stimulated PBMCs; 100 ng/mL, PHA 10 μg/mL): 40.5%, p < 0.001
secreted IL-1β level modulation vs positive control (PHA-stimulated PBMCs; 100 ng/mL, PHA 10 μg/mL): 46.2%, p = 0.001
secreted IL-6 level modulation vs positive control (PHA-stimulated PBMCs; 100 ng/mL, PHA 10 μg/mL): 4.1%, p = 0.810
secreted IL-8 level modulation vs positive control (PHA-stimulated PBMCs; 100 ng/mL, PHA 10 μg/mL): −2.0%, p = 0.943
secreted IL-10 level modulation vs positive control (PHA-stimulated PBMCs; 100 ng/mL, PHA 10 μg/mL): 22.1%, p = 0.033
secreted IL-12 level modulation vs positive control (PHA-stimulated PBMCs; 100 ng/mL, PHA 10 μg/mL): 74.3%, p = 0.002
secreted IL-17 level modulation vs positive control (PHA-stimulated PBMCs; 100 ng/mL, PHA 10 μg/mL): 55.3%, p = 0.003
secreted IL-22 level modulation vs positive control (PHA-stimulated PBMCs; 100 ng/mL, PHA 10 μg/mL): 50.0%, p = 0.020
secreted TNFα level modulation vs positive control (PHA-stimulated PBMCs; 100 ng/mL, PHA 10 μg/mL): 252.5%, p = 0.017
Decreased secretion: number of treatments with statistically significant modulation (PHA-stimulated PBMCs; PHA 5 μg/mL): 1
Increased secretion: number of treatments with statistically significant modulation (PHA-stimulated PBMCs; PHA 5 μg/mL): 7
Decreased secretion: number of treatments with statistically significant modulation (PHA-stimulated PBMCs; PHA 10 μg/mL): 1
Increased secretion: number of treatments with statistically significant modulation (PHA-stimulated PBMCs; PHA 10 μg/mL): 12
